Experimental findings from a protein production outcome set (Wang et al. 2014) are described below.

This data set is described as follows: label from the status in PepcDB records.
In the case of “MKLRKRRLCAATGVVLGALTALAALPPAAVASPHPGGHPPTARRALPLGPAGLPERRTTTTLQPGVTLTRIVRGNAEDPALHWTVEVSIPGGDTSPDPDAPPTALKDRASADELAAELRRDGFEARVEEVTTPATADYRGGTLGWRVRIGTFDSQTAATAERTRLRAAGYSGSAVYTGWDGAATDRGPWHVDVLTIDPRTFRGTLDASYGPDLENRETTSALAASAAATAAVNAGFFVLDPRAGAPGDPAGVGVYDGRLLSEPVAGRPALVVHDDGRRTEIARLTWQGRIATRAASLPLNGVNRVPGLIRNCGGSAGDTPTSLPLHDVTCTNPDELVAFTPDYGGRTPGGEGMEAVLDAHERVVELRSPRGGTIPRGGSSVQATGERVADLTATARVGERLRVSATLLDDRGRRMSTSPGTDIVNAGPELVRDGRVHVTPATDGMVHPGDPSWYYGWVHKRNPRTVAGVDAAGRTVLVTADGRSTDSLGLSIGESAEVARSLGLRDAVNLDGGGSTTMVAEGAVLNSPSDAAGERPVGDALLILPHRHRTRS”, the protein production result is “failed”.

For the sequence “DIRPSKLLTWCQQQTEGYQHVNVTDLTTSWRSGLALCAIIHRFRPELINFDSLNEDDAVENNQLAFDVAEREFGIPPVTTGKEMASAQEPDKLSMVMYLSKFYELFRGTPLRPV”, the protein production result is reported as “not failed”.

With “EQQADGTWLMDGWISIRKASNLLEHDLVDEAERYSTLGGYLLWQFGYIPAAGEQITVDGLIFEIVSVNKHNIGKVRVHRTQPENE”, the protein production result is recorded as “not failed”.

“MLLSFDNKAIADWAKLSGDYNPIHFEVERARETGANDIIVHGMLPLLHIKQRLSTVLPADTGRDWVSVKAMFRSPVLRQLPHALEIQPGKQRSRFSLRATHDASEVMAGSVYRSVPAESPEQPASFSIDRQLFREKRAVFAEAFPDFDRAWLLVDALTFSQFLSSEVPFSIVRDLAKMSGIASQHELMDAALTVQTAHTVMVEPELFRMPLSQLKDPGEIRCELHAPVTVPNSKDTLSGLSQFTVRLDGRPVMQSEVGLLVRFKS”: the protein production result is “failed”.

As to “MSRDPTYTINEHDLSFADGRFYVTFKADKSSETVRLNSSCLGNTIIKKLQVEDDNTMHDFVKPKVTTQQAFGLAQQVKELDLQLKDPKSDLWGKIKFNNKAMLVEYANKEMSSAIAQSAEQILLQVKSIDDERYSKFEQTLNGIKQTVKSESVESARTQLASMFDSRISGLDGKYSRLSQTIDSLSSRLDDGVGNYSTLSQKVSGIDLRVSNAANDVSRLSQTAQGLQSQITNANQNYSSLSQTVQGLQTTVRDNQSNATSRINQLSDLISTKVSKGDVETTIAQSYDKIAFAIRDKLPASKMSGSEIISAINLDRSGVKITGKNITLDGNSYISNAVIKDAHIANMDAGKINTGYLNANRIATEAITGEKIKMDYAFFNKLTANEGYFRTLFAKDIFATSVQSVTLSASKITGGVLAATNGASQWDLNNANMTFNRDATINFNSKNNALVRKDGTHTAFVHFSNATPKGYRGSALYASIGITSSGDGIDSASSGRFAGLRSFRYATGYNHTAAVDQTELYGDNVLIADDFNINRGFKFRPDKMEKVLDMNDLYAAVVALGRCWGHLANVGWNTAHSNFTSAVSRELNNYITKI”, the protein production result is given as “failed”.

As to “SERYAAALEEVADGARQQERHYQLLSALQSLVKELPSSFQQRLSYTTLSDLALALLDGTVFEIVQGLLEIQHLTEKSLYNQRLRLQNEHRVLRQALRQKHQEAQQACRPHNLPVVQAAQQRELEAVEHRIREEQRAMDQKIILELDRKVADQQSTLEKAGVAGFYVTTNPQELMLQMNLLELIRKLQQRGCRAGNAALGLGGPWQSPAAQCDQKGSPVPP”, the protein production result was “not failed”.

As to “MADRPIEIVDRQNVLTVHLPGTYTVMYDARYCYVSYIPVSETVAEFTLTGFKYPLTNCHISRGSTLCISNELIQSSGTFSFSEGILMMIRSSDSLEHHHHHH”, the protein production entry was “failed”.

As for “MMNNSEGLKSFQQSLADLPQWVSERLLQQINQLTNYEPVIGIMGKTGVGKSSLCNALFAGDISPVSDVAACTREPLRFRLQVGDRYITLMDLPGVGESGARDTEYAALYREQLPRLDLVLWLIKADDRALTVDEHFYHQVIGEVYRHKVLFVISQSDKAEPTSGGGQLSTAQKQNISRKICLLHELFQPVHPVCAVSVRLQWGLKVMAERMIKCLPREATSPVVSQLHPSFRTTVVREQARSDFGETVGAVLDSISAFPLIPAPVRAVIQAVRTTVVSVARAVWDFFF”, the protein production entry is on record as “failed”.

“MTDRIMALVDGSGFSRSVCLHAAWLAQRLELPVDLLHVLGRREAADRGDLSGALQLGARTALLEELAALDAERARLAQAQGRAILEDAQAILAAESVETTPHLRQGDLIDTVAGFERSGRALVVGKRGRAAGFASAHLGSNLERLLRASKLPVLIVPADCR”: the protein production entry is listed as “failed”.

Regarding “MGRKMGISGKLYSFLYLRGFKVWVSYRTQTVLTVLGWVLPVFTYYFTGTALGNRLVNEVGVSNYTAFFTIGLAFQGYVSSVISTISQRLRNEQLYGTIEYYVISRTGTFGFLLYSALWGLTLNTINAIIILAVGFALNIHYNVNIVSAIVIIVLLILSTLGIGMIAGAVTMVTKQGNPISFFFNTFTNLLGGTVFPVTVLPLYVRYISYGIPLTWALEGLREAFLNGAPITDIAPFIIILTIFDIVLLPLGVFSYNHAFKKAREKGTLGEY”, the protein production entry is given as “failed”.

Consider “MTRSVWLKADSEVGDWETRKRRITAGIEAGVDWVLVDEEDVDRVSELGEINIAAFTNGDVHVMEAEAEDSEADATIVGKDGEGDGTVDLPSDFSGSADLSTLRQNGAAPDGGYVRIFDEDYEAFAEAVAAEADFTIVIGENWQIIPLENLIARVGEETDLIAGVRTAEDARTAYETLELGADGVLLDTDEVDEIRKTVEVRDEMGRESLDLEYAEVTAIEQTGSADRVCIDTGSLMEHDEGMLVGSMARGLFFVHAETAESPYVASRPFRVNAGAVHAYVRTPDGGTKYLSELQSGDEVQIVDANGRTREAIVGRAKIEKRPMFRVQAETEDSDRIETLLQNAETIKVHTQDGRTAVTDLEPGDEILIHHEDTATHFGERIEESIIEK”, for which the protein production result is “failed”.

As for “MFSRKDIIVLGMMIFALFLGAGNIIFPPMEGFSSGQHWTSASLGFVLTGVLMPFITLVVVAILGRGEELTKDLPKWAGTGFLVILYLTIGSTFAMPRITNVAYEMAWLPLGLTENNANVRFVFSLIFNLIAMGFMISPNTIISSVGKFMTPALLVLLIAVAITVFISPLSEIQAPSNAYENSHSLLIGLTSGYQTMDVLAAIAFGGIVARALSAKNVTKTKDIVKYTISAGFVSVILLAGLYFSLFYLGATSAAVAEGATNGGQIFSRYVNVLFGSAGTWIMAGIIVLASLTTLVGVTSASADYFSKFSVRFSYPFWAALFTAMTITVSQYGLTDLLRITIPALLLIYPVAIVLVLLQFLRKKLPSIKFTYNSTLLVTVCFSLCDSLNNVKMLPESINSLLKHFPLSSEGMAWLVPTLVMLVASIFIGKALHKTHS”, the protein production result is listed as “failed”.

As for “MFLNGKVFIKGALGPRRRDASVSATQSQGAGGGVWGGPGSELAPPSRPRGRASGLLRIKLFEASRLRSRERKMAAPAGGGGSAVSVLAPNGRRHTVKVTPSTVLLQVLEDTCRRQDFNPSEYDLKFQRTVLDLSLQWRFANLPNNAKLEMVPASRSREGPENTVRIALQLDDGCRLQDSFCSRQTLWELLNHFAQTRERLQQLGERTPVCVYMRDEVTGRAALQNTTLQSLGLTGGSATIRFVIKQYDTTGKQESIAVRSKPPGSPVSSMSADQASSSPLLPLNSGEFSRGDLNHQGGASTSGTSLKGGPKPADAQTKQSTTKESASAPFIPFSGGGQRLGGPSVSLRSLTSPAAKSSTSFSGPGGPSKPKKSKPGEEPPQEPEPPVDRDPVVCHPDLEDLLQPWPAEVPDEFFEVTVDDVRRRLAQLKSERKRLEEAPLVTKAFREAQMKEKLERYPKVALRVLFPDRYILQGFFRPSETVGDLRDFVRSHLGNPELSFYLFIAPPKMVLDDHTLTLFQVPIALRVLLGLAVLGGQALCCGWVGKEPWQALQWVIKPLEPVNSEGAVASEVVSDWAFQPPPLPAWPRGGDWPAQLAGLLSSAGAA”, the protein production result is “failed”.

For the sequence “IDKKLTTLADLFRPPIDLMHKGSFETAKECGQMQNKWLMINIQNVQDFACQCLNRDVWSNEAVKNIIREHFIFWQVYHDSEEGQRYIQFYKLGDFPYVSILDPRTGQKLVEWHQLDVSSFLDQVTGFLGEHGQLDGLSSS”, the protein production entry is recorded as “not failed”.
